The target in this assay is T1, Shiga toxin 2 (E. coli (Shiga toxin-producing, STEC)).
T1 construct: source: similarly expressed and purified as previously described [29]; copies: + 5
The experiment in a line: pull-down. The note with it: both partners purified.

B1: nanobody G1 (NG1), biotinylated (VHH)
VHH: QVQLVESGGGLVQPGESLRLSCVASASTFSTSLMGWVRQAPGKGLESVAEVRTTGGTFYAKSVAGRFTISRDNAKNTLYLQMNSLKAEDTGVYYCTAGAGPIATRYRGQGTQVTVSS
notes: also called B2; source: E. coli SHuffle T7, purified (Ni-NTA IMAC)
Regarding B1, the binding result is “binds”.

The values above are taken from publication PMC12730240 (Biosensors, 2025).
